Test results reported in US20200164114A1.

The substances below were run against integrin αIIbβ3 on human platelets (human) (UniProt P08514) (assay: cell-based or functional assay).
integrin αIIbβ3 on human platelets (human), sequence (P08514 32-1039, chain 1 of 2): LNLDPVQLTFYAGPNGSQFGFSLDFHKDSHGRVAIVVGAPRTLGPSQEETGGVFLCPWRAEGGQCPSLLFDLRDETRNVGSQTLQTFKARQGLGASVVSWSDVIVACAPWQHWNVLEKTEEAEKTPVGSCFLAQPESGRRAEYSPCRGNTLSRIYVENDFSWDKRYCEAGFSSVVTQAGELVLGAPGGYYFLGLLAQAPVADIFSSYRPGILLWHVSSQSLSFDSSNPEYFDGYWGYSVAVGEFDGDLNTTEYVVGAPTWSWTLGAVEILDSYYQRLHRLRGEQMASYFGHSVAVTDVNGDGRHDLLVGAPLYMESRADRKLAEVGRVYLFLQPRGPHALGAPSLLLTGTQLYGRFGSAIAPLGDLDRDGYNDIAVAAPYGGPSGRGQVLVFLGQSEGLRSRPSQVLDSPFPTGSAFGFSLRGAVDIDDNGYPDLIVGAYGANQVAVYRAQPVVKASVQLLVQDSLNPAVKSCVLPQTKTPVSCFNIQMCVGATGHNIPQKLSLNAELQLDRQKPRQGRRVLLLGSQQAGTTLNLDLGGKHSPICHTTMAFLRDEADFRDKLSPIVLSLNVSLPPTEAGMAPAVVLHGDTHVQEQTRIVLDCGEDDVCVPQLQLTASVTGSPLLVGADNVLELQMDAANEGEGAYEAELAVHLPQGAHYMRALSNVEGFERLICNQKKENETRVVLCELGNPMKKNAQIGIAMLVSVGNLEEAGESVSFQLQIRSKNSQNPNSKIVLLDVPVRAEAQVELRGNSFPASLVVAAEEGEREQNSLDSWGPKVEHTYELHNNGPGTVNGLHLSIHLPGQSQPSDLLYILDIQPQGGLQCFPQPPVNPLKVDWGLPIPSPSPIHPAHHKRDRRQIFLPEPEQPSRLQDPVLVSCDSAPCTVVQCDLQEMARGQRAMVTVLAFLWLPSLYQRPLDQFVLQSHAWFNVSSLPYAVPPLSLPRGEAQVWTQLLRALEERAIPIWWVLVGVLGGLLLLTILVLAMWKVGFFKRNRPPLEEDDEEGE
integrin αIIbβ3 on human platelets (human), sequence (P05106 27-788, chain 2 of 2, further chain): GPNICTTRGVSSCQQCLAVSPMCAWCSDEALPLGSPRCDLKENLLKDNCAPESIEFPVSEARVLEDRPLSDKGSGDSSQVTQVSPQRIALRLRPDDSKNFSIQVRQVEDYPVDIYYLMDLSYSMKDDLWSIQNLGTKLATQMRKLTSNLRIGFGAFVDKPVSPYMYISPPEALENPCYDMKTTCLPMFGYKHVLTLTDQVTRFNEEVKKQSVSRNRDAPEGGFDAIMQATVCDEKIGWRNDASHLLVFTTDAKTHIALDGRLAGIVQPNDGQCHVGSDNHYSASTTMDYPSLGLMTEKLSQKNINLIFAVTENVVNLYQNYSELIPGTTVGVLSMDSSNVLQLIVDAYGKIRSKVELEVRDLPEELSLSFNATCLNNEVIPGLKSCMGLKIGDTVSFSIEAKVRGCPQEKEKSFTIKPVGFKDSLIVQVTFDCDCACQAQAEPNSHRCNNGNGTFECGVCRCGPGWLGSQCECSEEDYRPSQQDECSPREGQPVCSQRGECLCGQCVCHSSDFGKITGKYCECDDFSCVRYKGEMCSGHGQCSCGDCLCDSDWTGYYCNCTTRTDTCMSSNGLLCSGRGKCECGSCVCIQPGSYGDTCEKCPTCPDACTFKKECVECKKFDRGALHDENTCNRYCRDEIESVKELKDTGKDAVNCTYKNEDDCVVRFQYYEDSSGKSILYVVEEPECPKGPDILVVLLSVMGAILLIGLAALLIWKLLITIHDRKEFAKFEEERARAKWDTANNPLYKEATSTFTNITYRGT
With rhodostomin the Platelet Aggregation IC50 was 83.2 nM, the Platelet aggregation IC50 (nM), ADP was 81.5 nM and the Platelet aggregation IC50 (nM), Collagen was 66.8 nM. Work on rhodostomin mutant R/K yielded a Platelet aggregation IC50 (nM), ADP of 152 nM. For trimucrin (TMV-7), the Platelet aggregation IC50 (nM), ADP was 184 nM and the Platelet aggregation IC50 (nM), Collagen was 83.8 nM. In the case of trimucrin T/KRRR mutant, the Platelet Aggregation IC50 is reported as 127 nM, the Platelet aggregation IC50 (nM), ADP is reported as 127 nM and the Platelet aggregation IC50 (nM), Collagen is reported as 30.6 nM. trimucrin mutant T/IEEGK gave a Platelet aggregation IC50 (nM), ADP of 1050 nM and a Platelet aggregation IC50 (nM), Collagen of 217 nM. Work on trimucrin mutant T/IEEGKRR yielded a Platelet aggregation IC50 (nM), ADP of 511 nM and a Platelet aggregation IC50 (nM), Collagen of 57.5 nM. For trimucrin mutant T/IEEGKS, the Platelet aggregation IC50 (nM), ADP was 563 nM and the Platelet aggregation IC50 (nM), Collagen was 632 nM. Substance trimucrin mutant T/K has a Platelet aggregation IC50 (nM), ADP of 563 nM and a Platelet aggregation IC50 (nM), Collagen of 105 nM. In the case of trimucrin mutant T/KF, the Platelet aggregation IC50 (nM), ADP is reported as 154 nM and the Platelet aggregation IC50 (nM), Collagen is reported as 68.9 nM. Work on trimucrin mutant T/KFRFH yielded a Platelet aggregation IC50 (nM), ADP of 120 nM and a Platelet aggregation IC50 (nM), Collagen of 63.1 nM. With trimucrin mutant T/KH the Platelet aggregation IC50 (nM), ADP was 382 nM and the Platelet aggregation IC50 (nM), Collagen was 99.3 nM. trimucrin mutant T/KHR was tested, and the Platelet aggregation IC50 (nM), ADP was 256 nM and the Platelet aggregation IC50 (nM), Collagen was 80.1 nM. In the case of trimucrin mutant T/KR, the Platelet aggregation IC50 (nM), ADP is reported as 141 nM and the Platelet aggregation IC50 (nM), Collagen is reported as 49.9 nM. Work on trimucrin mutant T/KRKR yielded a Platelet aggregation IC50 (nM), ADP of 138 nM. With trimucrin mutant T/KRR the Platelet aggregation IC50 (nM), ADP was 213 nM and the Platelet aggregation IC50 (nM), Collagen was 30.9 nM. Substance trimucrin mutant T/KRRFH has a Platelet aggregation IC50 (nM), ADP of 192 nM and a Platelet aggregation IC50 (nM), Collagen of 66.9 nM. For trimucrin mutant T/KS, the Platelet aggregation IC50 (nM), ADP was 1080 nM and the Platelet aggregation IC50 (nM), Collagen was 562 nM. In the case of trimucrin mutant T/KWN, the Platelet aggregation IC50 (nM), ADP is reported as 125 nM and the Platelet aggregation IC50 (nM), Collagen is reported as 67.7 nM. trimucrin mutant T/KWNR gave a Platelet aggregation IC50 (nM), ADP of 54.6 nM and a Platelet aggregation IC50 (nM), Collagen of 52.4 nM. trimucrin mutant T/KWR showed a Platelet aggregation IC50 (nM), ADP of 106 nM and a Platelet aggregation IC50 (nM), Collagen of 26.3 nM. trimucrin mutant T/KY was tested, and the Platelet aggregation IC50 (nM), ADP was 246 nM and the Platelet aggregation IC50 (nM), Collagen was 44.9 nM. trimucrin mutant T/KYR was tested, and the Platelet aggregation IC50 (nM), ADP was 117 nM and the Platelet aggregation IC50 (nM), Collagen was 61 nM. Substance trimucrin mutant T/MGKWN has a Platelet aggregation IC50 (nM), ADP of 78 nM and a Platelet aggregation IC50 (nM), Collagen of 48.5 nM.

The substances below were run against integrin αvβ3 on CHO cells (CHO-αvβ3) (UniProt P06756) (assay: cell adhesion inhibition: CHO-αvβ3 cells to immobilized fibrinogen).
Work on rhodostomin yielded an IC50 of 13 nM.

Each substance was assayed against integrin αIIbβ3 on CHO cells (CHO-αIIbβ3) (UniProt P08514) (assay: cell adhesion inhibition: CHO-αIIbβ3 cells to immobilized fibrinogen).
Work on rhodostomin yielded an IC50 of 59.5 nM. For rhodostomin mutant R/K, the IC50 was 89.8 nM. Work on trimucrin T/KRRR mutant yielded an IC50 of 6580 nM. Substance trimucrin mutant T/IEEGK has an IC50 of 97600 nM. Work on trimucrin mutant T/IEEGKRR yielded an IC50 of 33800 nM. trimucrin mutant T/IEEGKS showed an IC50 of over 195000 nM. trimucrin mutant T/K was tested, and the IC50 was 27300 nM. Work on trimucrin mutant T/KF yielded an IC50 of 5550 nM. In the case of trimucrin mutant T/KFRFH, the IC50 is reported as 3190 nM. For trimucrin mutant T/KH, the IC50 was 15700 nM. trimucrin mutant T/KHR showed an IC50 of 5980 nM. With trimucrin mutant T/KR the IC50 was 6310 nM. trimucrin mutant T/KRKR was tested, and the IC50 was 13900 nM. With trimucrin mutant T/KRR the IC50 was 7330 nM. For trimucrin mutant T/KRRFH, the IC50 was 5600 nM. trimucrin mutant T/KS showed an IC50 of 39900 nM. trimucrin mutant T/KWN showed an IC50 of 1780 nM. For trimucrin mutant T/KWNR, the IC50 was over 692 nM. trimucrin mutant T/KWR showed an IC50 of 290 nM. In the case of trimucrin mutant T/KY, the IC50 is reported as 3300 nM. trimucrin mutant T/KYR showed an IC50 of 1460 nM. Substance trimucrin mutant T/MGKWN has an IC50 of 1720 nM.
